Columns and labels:
mrtfa_human MRTFA [1] = molecular target: mrtfa_human MRTFA (UniProt Q969V6)
mrtfa_human MRTFA [2] = molecular target: mrtfa_human MRTFA (UniProt Q969V6); remark: listed apart in the source

UniProt Q969V6, sequence (Q969V6 whole entry): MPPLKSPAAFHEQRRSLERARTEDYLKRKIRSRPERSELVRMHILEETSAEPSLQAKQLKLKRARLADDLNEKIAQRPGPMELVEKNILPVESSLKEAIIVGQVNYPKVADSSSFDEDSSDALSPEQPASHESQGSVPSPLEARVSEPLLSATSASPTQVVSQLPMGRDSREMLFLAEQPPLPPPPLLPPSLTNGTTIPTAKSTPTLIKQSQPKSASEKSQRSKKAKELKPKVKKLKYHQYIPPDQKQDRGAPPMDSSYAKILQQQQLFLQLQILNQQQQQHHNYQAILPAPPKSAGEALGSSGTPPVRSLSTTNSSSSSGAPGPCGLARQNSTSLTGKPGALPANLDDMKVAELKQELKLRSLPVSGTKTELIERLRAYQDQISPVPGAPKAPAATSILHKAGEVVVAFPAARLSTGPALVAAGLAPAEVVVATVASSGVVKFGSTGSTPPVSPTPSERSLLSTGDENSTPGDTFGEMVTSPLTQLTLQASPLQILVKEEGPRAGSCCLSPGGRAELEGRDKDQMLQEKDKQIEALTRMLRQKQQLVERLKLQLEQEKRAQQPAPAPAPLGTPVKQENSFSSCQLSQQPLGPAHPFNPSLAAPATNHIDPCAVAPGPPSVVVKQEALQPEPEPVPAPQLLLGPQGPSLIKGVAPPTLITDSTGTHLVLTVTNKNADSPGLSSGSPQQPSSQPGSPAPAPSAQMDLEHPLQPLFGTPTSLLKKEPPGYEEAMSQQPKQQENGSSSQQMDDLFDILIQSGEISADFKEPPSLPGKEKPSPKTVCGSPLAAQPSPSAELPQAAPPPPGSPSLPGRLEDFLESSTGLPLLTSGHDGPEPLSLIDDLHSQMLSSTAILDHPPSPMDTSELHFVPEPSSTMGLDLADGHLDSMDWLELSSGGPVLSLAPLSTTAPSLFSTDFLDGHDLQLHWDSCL

effect of a mutation on the interaction (mrtfa_human MRTFA [1]): disrupting interaction strength
effect of a mutation on the interaction (mrtfa_human MRTFA [2]): decreasing interaction strength
Substance: Filamin-A (Homo sapiens), P21333 S2152A

— IntAct's records for PubMed 36577757
